According to patent US20050009149A1:
“And” between values parts separate entries of the source, which are not always exact repeats. Equal values may be shown once.

Legend:
zTNF4 = zTNF4 (UniProt Q9Y275); test: cell-based or functional assay
[1] = target: human TACI on Jurkat TACI KZ142 Luciferase cells (human) (UniProt O14836); test: cell-based or functional assay
UniProt O14836, sequence (O14836 whole entry): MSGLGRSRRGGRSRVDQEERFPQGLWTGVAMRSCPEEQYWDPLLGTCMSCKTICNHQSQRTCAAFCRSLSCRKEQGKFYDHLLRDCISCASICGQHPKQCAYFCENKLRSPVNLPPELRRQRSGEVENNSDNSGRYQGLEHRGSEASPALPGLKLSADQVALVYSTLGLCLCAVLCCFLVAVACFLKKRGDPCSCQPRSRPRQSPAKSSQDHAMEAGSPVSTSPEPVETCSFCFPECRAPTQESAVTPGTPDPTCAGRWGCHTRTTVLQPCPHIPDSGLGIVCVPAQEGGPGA

| EC50, inhibition of zTNF4-stimulated human B-cell proliferation (3H-thymidine incorporation) (zTNF4) [nM] | fold effectiveness against TACI-Fc5, inhibition of zTNF4-induced B-cell proliferation (zTNF4) [times] | fold efficiency at inhibiting zTNF4-stimulated proliferation of human B-cells (zTNF4) [fold] | luciferase responsiveness of Jurkat TACI KZ142 Luciferase cells [1] | Substance |
| --- | --- | --- | --- | --- |
| 0.057 | 19 | 10 | – | TACI-NC1 (fusion of an extracellular domain of TACI and the NC1 domain of human collagen X, with Glu-Glu tag) |
| – | – | – | 18 fold and 10 fold | zTNF4 (from UniProt Q9Y275 134-285) (ligand) |
| 1.1 | – | – | – | TACI-Fc fusion protein (from UniProt O14836 1-165) |
